Assays:
[1] = system: HGF receptor expression site (infarct border zone); assay: Dual nuclide autoradiography in myocardial ischemia model rats; format: in vivo, CD(SD) IGS rats; conditions: 60 MBq femoral vein
Procedure: CD(SD) IGS rats (10-week-old) were anesthetized by intraperitoneally administering pentobarbital Na (35 mg/kg). After tracheostomy, an artificial respirator was attached to the rat. The left chest was opened, and an electrocardiogram was measured before coronary ligation. The coronary artery and its peripheral tissue (surrounding several millimeters) were ligated with suture, and ischemic state was determined on the basis of ST rise and recorded by an electrocardiogram. After recording, the chest was closed, and the trachea and the skin were sutured.
Three days after production of the myocardial ischemia model, a blood flow imaging agent ^99mTc-MIBI (Cardiolight Injection; DAIICHI RADIOISOTOPE LABS., LTD.) and [^125I]HGF(11-83)-NH2 (73 aa) were administered to each model rat. Blood flow was assessed through dual nuclide autoradiography and HE staining. ^99mTc-MIBI was administered at 60 MBq through a femoral vein. […] On the day of the experiment, the sample was affixed to an imaging plate for 30 minutes, and a ^99mTc-MIBI accumulation image was recorded by means of a bio-imaging analyzer BAS-1800 (FIG. 9). After 7-days attenuation period for ^99mTc for seven days, the sample was set again to the imaging plate for seven days, and a [^125I]HGF(11-83)-NH2 (73 aa) accumulation image was recorded by means of a bio-imaging analyzer BAS-1800 (FIG. 10).

[2] = system: HGF receptor expression site (infarct border zone); assay: Pinhole-SPECT imaging in myocardial ischemia model rats; format: in vivo, Wistar rats; conditions: 90 MBq left femoral vein
Procedure: Wistar rats (8-week-old) were anesthetized with isoflurane (Forane (R), Abbott). After tracheostomy, an artificial respirator connected to an anesthetizer was attached to each rat. The left chest was opened, and an electrogardiogram was measured before coronary ligation. The coronary artery and its peripheral tissue were ligated with suture. During ligation, nylon filament was placed as a spacer between the coronary artery and the suture in order to weaken the ligation strength so as not to completely intercept the blood flow. Ischemic state was determined on the basis of ST rise and recorded by an electrocardiogram. After recording, the left chest was closed, and the trachea and the skin were sutured.
Under inhalation anesthesia with isoflurane, ^99mTc-MIBI (90 MBq) was injected into the left femoral vein of each myocardial ischemia model rat. Subsequently, [^123I]HGF(11-83)-NH2 (73 aa) (100 MBq) prepared in a manner similar to that of Example 2 was administered through the right femoral vein. Thirty minutes after the administration, pinhole-SPECT imaging was conducted using a gamma camera (PRISM 2000, Shimadzu Corporation) (Imaging conditions: pinhole collimator, matrix sizes: 256×256, Mag 1.0, energy windows ^99mTc: 140 keV 10% and ^123I: 159 keV 10%, 3° 60 sec/step). […]

[3] = Heparin-binding activity by heparin affinity column HPLC; conditions: for NaCl concentration at elution from heparin column: TSK-gel Heparin-5PW, linear gradient 0 to 2M NaCl, pH 7.5, room temperature
Procedure: The heparin-binding activity of [^125I]HGF(11-83)-NH2 (73 aa) produced in Example 1 was determined with high-performance liquid chromatography employing a heparin column. hrHGF (PEPTIDE INSTITUTE, INC.), having a high heparin-binding activity, was used as a positive control.
<High-Performance Liquid Chromatography Conditions>
Column: TSK-gel Heparin-5PW (0.75×7.5 cm): product of TOHSO
solution A: 10 mM Na phosphate buffer (pH 7.5);
solution B: 10 mM Na phosphate buffer (pH 7.5)+2M NaCl;
0 min to 3 min: solution A 100%
3 min to 30 min: linear gradient solution B 0% to 100%
Temperature: room temperature (about 25° C.)

[4] = target: T1, HGF receptor of HuCCT1 cells (Homo sapiens, UniProt P08581); assay: Binding assay on HuCCT-1 cells with inhibition by hrHGF
T1 construct: c-Met-expressing HuCCT-1 cells (human-origin cholangiocarcinoma cells); endogenous in cells; host or cells: HuCCT-1 (human cholangiocarcinoma cells)
T1 sequence (P08581 25-307 limits assumed): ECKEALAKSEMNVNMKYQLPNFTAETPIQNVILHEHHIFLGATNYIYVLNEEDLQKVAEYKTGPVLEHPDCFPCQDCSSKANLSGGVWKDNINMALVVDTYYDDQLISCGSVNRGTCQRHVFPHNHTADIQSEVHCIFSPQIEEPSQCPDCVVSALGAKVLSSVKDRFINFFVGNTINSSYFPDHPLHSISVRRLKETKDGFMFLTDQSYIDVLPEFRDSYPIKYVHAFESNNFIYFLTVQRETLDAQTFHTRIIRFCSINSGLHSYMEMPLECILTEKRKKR
T1 sequence (P08581 308-1390 limits assumed): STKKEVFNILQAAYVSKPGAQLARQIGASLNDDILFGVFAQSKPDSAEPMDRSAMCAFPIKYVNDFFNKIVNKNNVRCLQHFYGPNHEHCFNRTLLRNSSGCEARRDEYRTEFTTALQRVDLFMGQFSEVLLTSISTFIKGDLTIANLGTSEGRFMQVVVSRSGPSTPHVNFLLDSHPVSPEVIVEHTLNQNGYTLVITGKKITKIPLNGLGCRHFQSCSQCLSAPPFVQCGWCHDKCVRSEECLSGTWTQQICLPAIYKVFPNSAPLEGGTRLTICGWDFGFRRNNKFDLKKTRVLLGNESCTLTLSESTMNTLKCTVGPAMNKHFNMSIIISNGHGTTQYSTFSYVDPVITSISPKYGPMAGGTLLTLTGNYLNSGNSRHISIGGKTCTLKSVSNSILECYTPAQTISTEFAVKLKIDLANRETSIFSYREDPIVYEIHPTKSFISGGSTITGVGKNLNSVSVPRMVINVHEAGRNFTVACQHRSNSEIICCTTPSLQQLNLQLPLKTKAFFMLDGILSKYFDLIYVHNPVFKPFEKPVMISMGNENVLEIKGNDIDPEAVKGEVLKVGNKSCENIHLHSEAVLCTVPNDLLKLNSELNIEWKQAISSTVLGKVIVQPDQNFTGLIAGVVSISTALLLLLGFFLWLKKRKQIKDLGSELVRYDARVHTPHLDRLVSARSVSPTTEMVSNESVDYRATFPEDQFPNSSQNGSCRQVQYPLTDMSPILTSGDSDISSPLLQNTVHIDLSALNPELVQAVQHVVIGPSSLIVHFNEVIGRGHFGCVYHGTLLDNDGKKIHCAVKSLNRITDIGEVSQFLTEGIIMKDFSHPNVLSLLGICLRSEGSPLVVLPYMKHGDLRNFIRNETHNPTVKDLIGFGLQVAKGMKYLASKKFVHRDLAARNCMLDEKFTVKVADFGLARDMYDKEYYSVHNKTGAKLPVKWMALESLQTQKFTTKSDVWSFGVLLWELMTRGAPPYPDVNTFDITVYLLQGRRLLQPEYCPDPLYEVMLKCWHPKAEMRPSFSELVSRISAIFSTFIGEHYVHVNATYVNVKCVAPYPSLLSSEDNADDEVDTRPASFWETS
Procedure: Inhibition of binding of [^125I]HGF(11-83)-NH2 (73 aa) to c-Met-expressing HuCCT-1 cells (human-origin cholangiocarcinoma cells) by human recombinant HGF (hrHGF) was determined by the binding assay.
Specifically, a suspension of HuCCT-1 cells (100 μL, (1.5×10^5 cells)) prepared for a binding inhibition test was placed in an Eppendorf tube whose inner surface had been coated with bovine serum albumin (BSA), and a solution of hrHGF (PEPTIDE INSTITUTE, INC.) (50 μL, final concentration: 379 nM) was added to the tube. A negative control was prepared by adding a binding buffer (0.2% BSA, 20 mM HEPES Hanks' solution, pH 7.0) (50 μL) instead of the rhHGF solution. To the samples, 0.758 nM [^125I]HGF(11-83)-NH2 (73 aa) solution (50 μL) (final concentration: 0.190 nM, ratio by amount to hrHGF: 1:2,000) was added. Each Eppendorf tube containing HuCCT-1 cells was stirred and incubated at room temperature for one hour, followed by centrifuged at 4° C. (3,000 rpm, 3 min) to precipitate the cells. The supernatant was removed by means of an aspirator. The cells were stirred with an ice-cooled binding buffer (500 μL), and the mixture was centrifuged (3,000 rpm, 3 min). The procedure was repeated thrice. The radioactivity of the Eppendorf tube containing HuCCT-1 cells was measured by means of a gamma counter. The average and the standard deviation of the radioactivity (cpm) were calculated for the samples to which the hrHGF solution had been added (hrHGF(+)) and for the samples to which the binding buffer had been added (hrHGF(−)). The difference between the averages was assessed through the Student's t-test.

[5] = system: c-Met-expressed McA-RH7777 cells (rat-origin liver cancer cells) tumor; assay: Accumulation in c-Met expressing tumor of implanted mice, autoradiography; format: in vivo, nude mice (BALB/c nu/nu); conditions: compared with anti-c-Met antibody (SP-260) immunohistochemical staining of serial sections
Procedure: c-Met-specific accumulation of [^125I]HGF(11-83)-NH2 (73 aa) in a tumor was observed by autoradiography and immunohistostaining in mice subcutaneously implanted c-Met expressing cancer cells.
3. Observation of c-Met-Specific Accumulation of [^125I]HGF(11-83)-NH2 (73 aa) in a Tumor of Mice Subcutaneously Implanted c-Met Expressing Cancer Cells by Autoradiography and Immunohistostaining
A suspension of c-Met-expressed McA-RH7777 cells (rat-origin liver cancer cells) (200 μL, 2.0×10^6 cells) was subcutaneously injected to a right hindlimb of 6-week-old nude mice (BALB/c nu/nu: Japan SLC, Inc.). On day 9 (tumor volume: […] (McA-RH7777 cells)), the aforementioned labeled HGF-fragment (370 kBq/100 μL) was intravenously administered to each mouse. The tumor was isolated with muscles surrounding the tumor 15 minutes after administration, and frozen sections were prepared. Each frozen section was affixed to an imaging plate (Fuji Photo Film Co., Ltd) for seven days, and a [^125I]HGF(11-83)-NH2 (73 aa) accumulation image was observed by means of a bio-imaging analyzer BAS-1800 (Fuji Photo Film Co., Ltd) (FIG. 5). […] Serial frozen sections were subjected to hematoxylin-eosin (HE) staining (FIG. 6) and immunohistochemical staining with anti-c-Met antibody (SP-260) (FIG. 7).

| Molecule | Accumulation at the infarct border zone (autoradiography) [1] | Accumulation at the infarct border zone (pinhole-SPECT) [2] | NaCl concentration at elution from heparin column [3] | Portion of the sample with strong heparin-binding activity ([3]; from the peak area ratios) | Area ratio of the heparin-binding peak ([3]; peak at 20.3 min, other peaks are free 125I and decomposed or denatured peptide) [%] | Radioactivity bound to HuCCT1 cells, hrHGF(+) samples ([4]; 0.190 nM labeled peptide with 379 nM hrHGF, room temperature, one hour, mean±SD) [cpm] | Radioactivity bound to HuCCT1 cells, hrHGF(−) samples ([4]; 0.190 nM labeled peptide, room temperature, one hour, mean±SD) [cpm] | Reduction of binding to the cells by addition of hrHGF ([4]; hrHGF 379 nM, 2,000-fold mole concentration, P=0.040) [%] | Specificity of accumulation in tumor [5] |
| --- | --- | --- | --- | --- | --- | --- | --- | --- | --- |
| [99Tc].[C-]#[N+]CC(C)(C)OC.[C-]#[N+]CC(C)(C)OC.[C-]#[N+]CC(C)(C)OC.[C-]#[N+]CC(C)(C)OC.[C-]#[N+]CC(C)(C)OC.[C-]#[N+]CC(C)(C)OC [^99mTc-MIBI] | reduced accumulation | reduced accumulation | – | – | – | – | – | – | – |
| hrHGF: human recombinant HGF (PEPTIDE INSTITUTE, INC.), positive control with high heparin-binding activity [reference compound] | – | – | about 1.5 M | – | – | – | – | – | – |
| [^125I]HGF(11-83)-NH2 (73 aa): labeled product prepared through directly introducing 125I into HGF(11-83)-NH2 (73 aa) (peptide) peptide: FKKSAKTTLIKIDPALKIKTKKVNTADQCANRCTRNKGLPFTCKAFVFDKARKQCLWFPFNSMSSGVKKEFGH | – | – | about 1.3 M | about 80% | 78.1 | 20916.9±1574.2 | 26136.2±2580.8 | 20 | c-Met-specific |

Source: US20090169473A1, “DIAGNOSTIC AGENT AND THERAPEUTIC AGENT FOR DISEASE ASSOCIATED WITH HEPATOCYTE GROWTH FACTOR RECEPTOR” (FUJIFILM RI PHARMA CO., LTD., priority 2005, published 2009)
